In the supplement of paper PMC10065799, “High-throughput profiling of sequence recognition by tyrosine kinases and SH2 domains using bacterial peptide display” (eLife, 2023):

Legend:
Grb2 SH2 = Grb2 SH2 (UniProt P62993); experiment: SH2 binding enrichment of the phosphorylated peptide, bacterial display (enrichment ratio); higher = better substrate or ligand; peptides without Tyr show the background
SHP2-C SH2 = experiment: as above
c-Src SH2 = experiment: as above
FGFR3 = FGFR3 (UniProt P22607); experiment: phosphorylation enrichment, bacterial display (enrichment ratio); higher = better substrate or ligand; peptides without Tyr show the background
MERTK = MERTK (UniProt Q12866); experiment: as above
Chain of MERTK (Q12866 whole entry, looked up): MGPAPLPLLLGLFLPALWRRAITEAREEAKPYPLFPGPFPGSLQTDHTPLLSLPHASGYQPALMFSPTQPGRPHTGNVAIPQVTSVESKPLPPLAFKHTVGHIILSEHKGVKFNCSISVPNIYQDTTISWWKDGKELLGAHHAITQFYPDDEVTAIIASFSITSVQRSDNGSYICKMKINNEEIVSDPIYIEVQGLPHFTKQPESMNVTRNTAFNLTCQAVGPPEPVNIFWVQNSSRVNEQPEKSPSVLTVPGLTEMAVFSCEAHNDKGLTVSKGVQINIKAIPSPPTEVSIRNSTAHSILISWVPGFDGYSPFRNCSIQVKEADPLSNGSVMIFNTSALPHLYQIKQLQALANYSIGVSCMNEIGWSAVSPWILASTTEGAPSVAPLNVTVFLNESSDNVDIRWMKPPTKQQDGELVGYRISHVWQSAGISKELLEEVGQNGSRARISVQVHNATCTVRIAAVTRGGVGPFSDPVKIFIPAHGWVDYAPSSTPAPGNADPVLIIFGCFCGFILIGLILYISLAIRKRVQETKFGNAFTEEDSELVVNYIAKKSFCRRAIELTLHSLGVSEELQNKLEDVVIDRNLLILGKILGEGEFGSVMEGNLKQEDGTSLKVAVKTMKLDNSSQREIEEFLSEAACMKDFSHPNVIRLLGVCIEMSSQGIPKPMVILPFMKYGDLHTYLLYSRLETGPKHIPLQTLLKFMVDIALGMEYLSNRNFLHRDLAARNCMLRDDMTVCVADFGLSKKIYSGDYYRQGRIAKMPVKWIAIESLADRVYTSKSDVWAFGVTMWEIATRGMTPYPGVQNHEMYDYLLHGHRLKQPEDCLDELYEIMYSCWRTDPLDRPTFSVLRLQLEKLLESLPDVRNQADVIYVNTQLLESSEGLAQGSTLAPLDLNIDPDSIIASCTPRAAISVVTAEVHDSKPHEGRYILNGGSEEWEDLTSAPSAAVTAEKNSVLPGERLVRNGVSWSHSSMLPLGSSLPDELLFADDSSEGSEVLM

EPHB2 = EPHB2 (UniProt P29323); experiment: as above
Chain of EPHB2 (P29323 whole entry, looked up): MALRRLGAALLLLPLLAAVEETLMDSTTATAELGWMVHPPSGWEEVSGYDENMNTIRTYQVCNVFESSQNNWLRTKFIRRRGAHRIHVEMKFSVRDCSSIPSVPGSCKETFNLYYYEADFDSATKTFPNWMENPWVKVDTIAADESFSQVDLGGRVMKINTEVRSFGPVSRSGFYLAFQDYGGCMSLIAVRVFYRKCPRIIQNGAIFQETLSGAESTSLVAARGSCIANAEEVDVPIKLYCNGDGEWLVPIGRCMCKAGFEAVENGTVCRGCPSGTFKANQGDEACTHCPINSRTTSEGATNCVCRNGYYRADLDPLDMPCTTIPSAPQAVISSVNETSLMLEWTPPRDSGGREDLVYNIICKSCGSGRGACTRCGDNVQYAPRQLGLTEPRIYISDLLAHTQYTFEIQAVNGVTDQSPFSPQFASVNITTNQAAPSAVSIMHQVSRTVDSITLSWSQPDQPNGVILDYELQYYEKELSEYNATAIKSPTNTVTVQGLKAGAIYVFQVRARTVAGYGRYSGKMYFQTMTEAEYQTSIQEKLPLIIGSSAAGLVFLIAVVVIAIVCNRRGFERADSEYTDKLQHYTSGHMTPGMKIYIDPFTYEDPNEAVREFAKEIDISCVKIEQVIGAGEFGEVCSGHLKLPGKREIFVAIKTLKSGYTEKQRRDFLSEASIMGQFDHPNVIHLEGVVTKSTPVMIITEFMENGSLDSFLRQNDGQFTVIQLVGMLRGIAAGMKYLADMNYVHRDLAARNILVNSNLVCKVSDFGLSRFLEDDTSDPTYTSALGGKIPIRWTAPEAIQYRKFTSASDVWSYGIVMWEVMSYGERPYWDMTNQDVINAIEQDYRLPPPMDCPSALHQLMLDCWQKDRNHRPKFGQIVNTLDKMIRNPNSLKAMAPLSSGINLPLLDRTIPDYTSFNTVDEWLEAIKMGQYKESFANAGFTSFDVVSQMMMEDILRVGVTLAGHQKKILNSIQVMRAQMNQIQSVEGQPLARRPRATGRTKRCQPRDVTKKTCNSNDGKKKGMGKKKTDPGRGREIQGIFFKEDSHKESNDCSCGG

Fes = Fes (UniProt P07332); experiment: as above
Chain of Fes (P07332 whole entry, looked up): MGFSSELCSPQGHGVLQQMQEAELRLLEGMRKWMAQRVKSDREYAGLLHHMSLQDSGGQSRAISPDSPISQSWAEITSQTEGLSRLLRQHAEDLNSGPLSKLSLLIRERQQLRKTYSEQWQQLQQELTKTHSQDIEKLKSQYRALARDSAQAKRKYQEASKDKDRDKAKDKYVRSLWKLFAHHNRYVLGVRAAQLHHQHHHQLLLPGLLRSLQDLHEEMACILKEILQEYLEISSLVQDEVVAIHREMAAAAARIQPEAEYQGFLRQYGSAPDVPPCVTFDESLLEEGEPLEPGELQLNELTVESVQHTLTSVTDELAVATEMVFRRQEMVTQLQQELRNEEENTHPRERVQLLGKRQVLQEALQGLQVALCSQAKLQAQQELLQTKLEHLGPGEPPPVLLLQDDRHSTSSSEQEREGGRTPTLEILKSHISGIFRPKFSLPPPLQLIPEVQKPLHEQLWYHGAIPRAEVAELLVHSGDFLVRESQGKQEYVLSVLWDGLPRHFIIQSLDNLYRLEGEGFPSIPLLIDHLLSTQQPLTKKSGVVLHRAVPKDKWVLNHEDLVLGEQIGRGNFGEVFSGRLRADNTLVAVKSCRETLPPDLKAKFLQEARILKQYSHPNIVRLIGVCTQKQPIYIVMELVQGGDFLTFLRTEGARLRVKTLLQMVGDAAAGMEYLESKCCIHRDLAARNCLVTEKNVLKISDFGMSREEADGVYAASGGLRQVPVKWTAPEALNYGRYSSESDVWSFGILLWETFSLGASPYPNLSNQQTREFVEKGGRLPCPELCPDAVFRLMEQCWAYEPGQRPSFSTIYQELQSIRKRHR

Hck = Hck (UniProt P08631); experiment: as above
Chain of Hck (P08631 whole entry, looked up): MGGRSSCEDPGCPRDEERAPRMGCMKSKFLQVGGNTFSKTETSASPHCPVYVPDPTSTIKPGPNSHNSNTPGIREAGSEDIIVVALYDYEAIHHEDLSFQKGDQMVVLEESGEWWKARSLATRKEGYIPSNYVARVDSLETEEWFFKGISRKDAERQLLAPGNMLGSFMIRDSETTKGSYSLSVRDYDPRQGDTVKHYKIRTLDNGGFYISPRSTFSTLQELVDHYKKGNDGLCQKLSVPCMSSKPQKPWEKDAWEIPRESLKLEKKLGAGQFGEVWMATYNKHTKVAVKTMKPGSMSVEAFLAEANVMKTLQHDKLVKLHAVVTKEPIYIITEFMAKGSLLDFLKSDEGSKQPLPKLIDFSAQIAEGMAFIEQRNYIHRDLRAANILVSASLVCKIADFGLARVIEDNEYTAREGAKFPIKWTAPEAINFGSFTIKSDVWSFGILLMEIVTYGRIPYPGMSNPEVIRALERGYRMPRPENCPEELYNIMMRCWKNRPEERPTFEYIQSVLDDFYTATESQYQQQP

Jak2 = Jak2 (UniProt O60674); experiment: as above
Fyn = Fyn (UniProt P06241); experiment: as above
Chain of Fyn (P06241 whole entry, looked up): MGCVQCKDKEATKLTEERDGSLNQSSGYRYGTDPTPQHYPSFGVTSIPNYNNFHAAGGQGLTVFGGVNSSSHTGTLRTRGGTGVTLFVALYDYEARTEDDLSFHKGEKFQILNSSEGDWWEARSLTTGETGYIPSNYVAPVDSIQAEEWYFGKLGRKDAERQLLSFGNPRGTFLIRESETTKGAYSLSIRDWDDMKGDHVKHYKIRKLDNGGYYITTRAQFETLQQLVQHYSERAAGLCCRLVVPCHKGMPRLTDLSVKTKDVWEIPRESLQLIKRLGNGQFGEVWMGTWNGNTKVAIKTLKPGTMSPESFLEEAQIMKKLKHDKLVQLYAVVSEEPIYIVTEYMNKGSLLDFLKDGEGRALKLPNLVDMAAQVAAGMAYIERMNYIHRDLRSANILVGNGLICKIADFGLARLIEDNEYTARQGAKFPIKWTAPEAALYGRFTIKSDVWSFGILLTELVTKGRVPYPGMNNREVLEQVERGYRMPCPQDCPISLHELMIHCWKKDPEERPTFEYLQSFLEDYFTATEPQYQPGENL

c-Src = experiment: as above
FGFR1 = FGFR1 (UniProt P11362); experiment: as above
AncSZ = experiment: as above
Fer (mouse) = experiment: as above
c-Abl (mouse) = experiment: as above
EPHB1 = EPHB1 (UniProt P54762); experiment: as above
Chain of EPHB1 (P54762 whole entry, looked up, the tested form may be a part): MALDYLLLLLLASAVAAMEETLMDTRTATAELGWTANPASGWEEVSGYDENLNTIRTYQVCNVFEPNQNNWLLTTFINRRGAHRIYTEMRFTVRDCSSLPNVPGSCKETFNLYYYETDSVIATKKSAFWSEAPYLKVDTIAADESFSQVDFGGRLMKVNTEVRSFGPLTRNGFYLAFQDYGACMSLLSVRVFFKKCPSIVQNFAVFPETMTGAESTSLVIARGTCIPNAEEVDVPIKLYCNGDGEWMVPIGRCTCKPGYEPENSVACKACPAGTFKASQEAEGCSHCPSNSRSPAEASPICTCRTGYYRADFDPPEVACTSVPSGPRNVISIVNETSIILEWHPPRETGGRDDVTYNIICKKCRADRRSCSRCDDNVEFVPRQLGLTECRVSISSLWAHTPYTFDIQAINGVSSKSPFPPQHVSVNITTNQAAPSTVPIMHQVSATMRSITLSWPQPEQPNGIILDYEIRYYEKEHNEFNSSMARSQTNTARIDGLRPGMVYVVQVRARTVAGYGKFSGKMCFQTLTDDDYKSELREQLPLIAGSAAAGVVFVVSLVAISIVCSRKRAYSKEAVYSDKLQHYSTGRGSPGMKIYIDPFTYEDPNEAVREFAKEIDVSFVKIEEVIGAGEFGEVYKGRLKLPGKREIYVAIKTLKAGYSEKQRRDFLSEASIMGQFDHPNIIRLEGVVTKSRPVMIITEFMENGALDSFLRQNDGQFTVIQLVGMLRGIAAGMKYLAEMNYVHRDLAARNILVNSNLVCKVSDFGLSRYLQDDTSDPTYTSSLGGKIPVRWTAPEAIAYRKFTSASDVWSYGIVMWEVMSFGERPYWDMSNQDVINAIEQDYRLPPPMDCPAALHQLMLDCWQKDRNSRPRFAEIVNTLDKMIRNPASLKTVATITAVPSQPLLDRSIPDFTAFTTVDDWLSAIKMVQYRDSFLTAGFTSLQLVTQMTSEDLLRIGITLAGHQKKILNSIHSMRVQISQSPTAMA
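For SH2 binding enrichment of the phosphorylated peptide, bacterial display in this document: peptide library displayed on the E. coli surface as eCPX fusions, selected cells deep-sequenced, score is each peptide's frequency after selection divided by its frequency in the input.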
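For phosphorylation enrichment, bacterial display in this document: 11-residue human phosphosite peptides and single-mutation variants displayed on the E. coli surface, counted by deep sequencing, each peptide's frequency after selection divided by its frequency in the unselected input library; frequency after pTyr selection over input frequency; kinase dosed for 20-30% of maximal phosphorylation in three min.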

SH2 binding enrichment (Grb2 SH2)	SH2 binding enrichment (SHP2-C SH2)	SH2 binding enrichment (c-Src SH2)	Sequence	phosphorylation enrichment (FGFR3)	phosphorylation enrichment (MERTK)	phosphorylation enrichment (EPHB2)	phosphorylation enrichment (Fes)	phosphorylation enrichment (Hck)	phosphorylation enrichment (Jak2)	phosphorylation enrichment (Fyn)	phosphorylation enrichment (c-Src)	phosphorylation enrichment (FGFR1)	phosphorylation enrichment (AncSZ)	phosphorylation enrichment (Fer (mouse))	phosphorylation enrichment (c-Abl (mouse))	phosphorylation enrichment (EPHB1)
0.92	0.657	0.445	LRAGVYHEKDQ [DNM2_Y626_P627H]	0.763	0.491	0.451	1.29	0.605	1.08	0.608	0.617	0.635	0.735	0.509	0.877	0.629
0.805	0.612	0.519	LRFDSYSSFCN [SLC20A2_Y433_YF]	1.1	0.479	0.734	1.52	0.687	1.37	0.464	0.642	0.703	1.54	0.617	0.833	0.736
0.538	0.504	0.725	LRRFIYRPPDR [OTOF_Y1231]	0.656	0.824	0.656	1.18	0.854	0.809	0.678	0.954	0.808	0.825	0.583	0.485	0.529
0.655	1.01	0.531	LSSNLYFRWLT [CNGA3_Y168_P163L_YF]	1.51	4.32	0.749	1.64	1.73	5.07	0.595	1.21	1.15	1.76	1.01	1.79	0.783
1.08	1.05	0.537	LTPVKYLLSAT [GSDMC_Y26]	0.508	0.425	0.412	0.616	0.429	0.433	0.396	0.345	0.46	0.515	0.282	0.593	0.585
0.645	1.21	0.507	LWEGSYGKVKE [STK11_Y60_G56W]	0.77	0.509	0.491	2.28	0.678	1.08	0.623	0.721	0.587	0.872	0.647	0.69	0.476
1.05	1.23	0.666	LYYYSYLLKNH [PTEN_Y180_V175L]	3.79	4.98	1.65	1.3	1.49	2.46	0.946	1.06	4.27	1.64	0.959	1.97	3.44
0.972	0.678	0.466	MARDIYQASFF [LTK_Y672_R673Q_YF]	0.564	5.44	1.7	0.887	7.31	0.992	6.4	6.07	0.679	0.966	3.26	5.43	2.15
1.09	0.975	0.578	MDFRSYPREFG [RBM10_Y44_YF]	0.511	0.352	0.454	0.858	0.388	0.63	0.366	0.431	0.529	0.606	0.366	0.455	0.437
0.716	0.61	0.44	MEVGQYFFVKC [CYBB_Y324_I325F]	4.7	1.13	0.8	1.69	0.719	2.56	0.551	0.667	4.99	2.28	0.801	1.39	0.861
0.65	0.727	0.495	MFCAGYDTKQE [F10_Y407]	0.877	0.48	0.805	1.47	0.632	1.38	0.539	0.584	0.518	1.11	0.652	0.793	0.81
0.883	0.64	0.716	MIHSAYALGGL [CPS1_Y590_R587H]	0.471	0.409	0.428	0.592	0.464	0.502	0.566	0.489	0.388	0.53	0.626	0.373	0.36
0.731	0.6	0.408	MIRSAYALRGL [CPS1_Y590_G593R]	0.527	0.423	0.448	0.628	0.491	0.543	0.39	0.474	0.474	0.669	0.409	0.502	0.434
0.725	0.742	0.54	MKGDFYCFLAE [YWHAG_Y131_R132C_YF]	1.5	2.81	0.88	1.58	0.695	1.29	0.456	0.592	1.02	1.32	0.644	0.971	1.18
0.789	0.779	1.36	MKGDYYCYLAE [YWHAG_Y131_R132C]	9.01	5.47	5.89	1.5	1.48	5.78	2.16	2.49	11.4	3	1.07	1.85	5.59
1.27	1.03	0.834	MPLTKYLKRIK [CNGB3_Y200_E199K]	0.488	0.431	0.377	0.623	0.534	0.477	0.377	0.391	0.472	0.641	0.425	0.498	0.425

SH2 binding enrichment (Grb2 SH2)	SH2 binding enrichment (SHP2-C SH2)	SH2 binding enrichment (c-Src SH2)	Sequence	phosphorylation enrichment (FGFR3)	phosphorylation enrichment (MERTK)	phosphorylation enrichment (EPHB2)	phosphorylation enrichment (Fes)	phosphorylation enrichment (Hck)	phosphorylation enrichment (Jak2)	phosphorylation enrichment (Fyn)	phosphorylation enrichment (c-Src)	phosphorylation enrichment (FGFR1)	phosphorylation enrichment (AncSZ)	phosphorylation enrichment (Fer (mouse))	phosphorylation enrichment (c-Abl (mouse))	phosphorylation enrichment (EPHB1)
0.903	0.661	0.511	MPVDGYISGLL [PAK6_Y81]	0.626	0.41	0.59	0.953	0.441	0.817	0.524	0.487	0.583	0.716	0.522	0.622	0.447
0.789	1.08	0.407	MRTMGYMPTEM [CABP5_Y62]	0.538	0.344	0.509	0.732	0.456	0.507	0.388	0.355	0.63	0.683	0.459	0.447	0.428
0.919	0.657	0.399	MSNVPYVMNRG [ACAT1_Y161]	0.594	0.474	0.421	0.619	0.399	0.572	0.426	0.478	0.464	0.734	0.377	0.527	0.368
0.83	0.611	0.773	MSRNLYSGDFF [DDR2_Y736_YF]	2.16	9.92	10	0.98	5.38	0.655	5.54	4.14	2.41	0.825	1.57	0.797	7.35
1.24	1.22	0.72	MTYVFYRENLR [NLRP14_Y443]	0.967	0.514	0.741	1.4	1.03	1.48	0.823	1.36	0.653	1.64	0.521	0.791	1.03
0.642	0.635	0.497	NAGDFYDLFGG [PTPN11_Y63_T59A_YF]	0.769	2.72	0.564	1.16	3.55	0.971	5.68	6.02	0.455	1.11	2.43	0.762	0.651
0.847	0.585	0.452	NAMRRYIEEFQ [MNS1_Y244]	0.501	0.346	0.459	0.819	0.413	0.516	0.371	0.347	0.458	0.734	0.417	0.541	0.352
0.709	0.571	0.299	NCLRQYVAGRF [CRB1_Y711_E710Q]	0.467	0.456	0.492	0.646	0.337	0.62	0.477	0.444	0.382	0.993	0.367	0.576	0.39
0.834	0.616	0.477	NDDDVYLSLEE [VAV2_Y142_R143L]	0.984	0.507	0.627	1.48	0.721	1.54	0.706	0.804	0.725	1.49	0.656	1.05	0.793
0.804	0.545	0.457	NDPMEYAKQHG [ASS1_Y163_L160P]	0.527	0.465	0.485	0.876	0.467	0.86	0.389	0.396	0.415	0.769	0.426	0.718	0.419
0.889	0.581	0.432	NETNKYQISVN [FGB_Y368_A365T]	0.575	0.418	0.46	0.709	0.412	0.684	0.415	0.329	0.411	0.653	0.375	0.57	0.427
0.686	0.585	0.485	NFFEFYVDDPL [GCHFR_Y48_P53L_YF]	0.874	0.413	0.52	1.11	0.439	1.07	0.436	0.489	0.501	1.09	0.428	0.78	0.773
0.751	0.619	2.54	NFSKMYCNPDA [KNL1_Y489_A486S_YF]	0.802	0.524	0.613	0.924	0.488	0.894	0.486	0.426	0.46	0.94	0.563	0.699	0.562
0.902	0.617	0.594	NGPDVYVLPVT [AATK_Y93_L97V]	0.751	2.73	0.644	1.05	0.776	0.837	2.25	1.2	0.72	1.79	0.453	0.787	0.723
0.685	0.618	0.427	NGQAVYAACQT [XDH_Y1092]	0.371	1.64	2.2	0.706	4.26	0.378	4.76	3.51	0.506	0.545	2.4	3.5	2.24
1.06	1.05	0.915	NHRNQYQALKP [CLSPN_Y887]	0.438	0.531	0.377	0.534	0.504	0.463	0.335	0.404	0.351	0.739	0.356	0.476	0.375

Sequence	SH2 binding enrichment (Grb2 SH2)	SH2 binding enrichment (SHP2-C SH2)	SH2 binding enrichment (c-Src SH2)	phosphorylation enrichment (FGFR3)	phosphorylation enrichment (MERTK)	phosphorylation enrichment (EPHB2)	phosphorylation enrichment (Fes)	phosphorylation enrichment (Hck)	phosphorylation enrichment (Jak2)	phosphorylation enrichment (Fyn)	phosphorylation enrichment (c-Src)	phosphorylation enrichment (FGFR1)	phosphorylation enrichment (AncSZ)	phosphorylation enrichment (Fer (mouse))	phosphorylation enrichment (c-Abl (mouse))	phosphorylation enrichment (EPHB1)
LQTYRYHGHSM [PDHA1_Y289]	0.879	0.646	0.561	0.395	0.698	0.337	0.513	0.288	0.569	0.414	0.285	0.323	0.52	0.455	0.411	0.489
